Experimental findings from patent publication US9457043B2, “Combination therapy using c-Met inhibitor and c-Myc inhibitor” (Samsung Electronics Co., Ltd., priority 2013, dated 2016) are described below.

In one test the target is c-Met (Homo sapiens, UniProt P08581). Description: Specificity of expressed scFv to c-Met. Type of test: binding. As to conditions: scFv product after expression. An excerpt:
For use in constructing an scFv of the huAbF46 antibody from the heavy and light chain variable regions of the huAbF46 antibody, a gene was designed to have the structure of “VH-linker-VL” for each of the heavy and the light chain variable region, with the linker including the amino acid sequence “[…]” (SEQ ID NO: 54). A polynucleotide sequence (SEQ ID NO: 55) coding for the designed scFv of huAbF46 was synthesized in Bioneer and an expression vector for the polynucleotide had the nucleotide sequence of SEQ ID NO: 56.

In the next test the test system is LoVo cells. Description: Cell proliferation (CellTiter Glo) in LoVo colon cancer cells. It counts as cell-based. The note with it: L3-1Y/IgG2 0-2 μg/ml, 72 hours, FIG. 5. An excerpt:
(§1) To confirm the effect of co-administration in a colon cancer cell on which an anti-c-Met antibody has no effect when administered alone, HT-29 (ATCC, HTB-38), Ls174T (ATCC, CCL-188), SW620 (ATCC, CCL-227), and LoVo (ATCC, CCL-229) cells were used for assaying the effect of co-administration on cell proliferation.
(§2) In particular, a mixture of c-Myc siRNAs (sic-Myc; mixture of siRNA pools wherein 5′-[…]-3′ (SEQ ID NO: 119), 5′-[…]-3′ (SEQ ID NO: 120), 5′-[…]-3′ (SEQ ID NO: 121), and 5′-[…]-3′ (SEQ ID NO: 122) are mixed at the molar ratio of 1:1:1:1) was reverse transfected to each of HT-29, Ls174T, SW620, and LoVo cells and each transfected cells were incubated in 96-well plate at the amount of 5000 cells/well (medium: 10% FBS in RPMI 1640 (GIBCO), incubation temperature: 37° C.). The reverse transfection was conducted using lipofectamine RNAi max (invitrogen). The reverse transfection was conducted by pre-incubating 10˜20 uM of siRNA diluted in opti-MEM (Gibco) and lipofectamine RNAi max diluted in opti-MEM (Gibco) at room temperature for 15 minutes, and then mixing with 5000 cells/well of the incubated cells, to allow reverse transfection. 24 hours after, the prepared cells were treated with L3-1Y/IgG2. […] The number of the cells was counted through luminescence signal, and the luminescence signal was recorded using Envision 2104 Multi-label Reader (Perkin Elmer). […]

A further test has as its system c-Myc. Briefly: c-Myc expression level by western blotting in HT-29 cells. It counts as cell-based. The note with it: 1 μg/ml L3-1Y/IgG2 for 24 hours, western blot, beta-actin control, FIG. 7. The protocol:
To reveal the causes of acquirement of effect by co-treatment of an anti-c-Met antibody and c-Myc siRNA on colon cancer cell on which the antibody solely has no effect, the expression level of c-Myc in HT29 (ATCC, HTB-38) treated with an anti-c-Met antibody was measured.
In particular, 20000 cells of HT-29 cell was incubated in 60 mm plate (medium: 10% FBS in RPMI 1640 (GIBCO), incubation temperature: 37° C.). 24 hours after, 1 μg/ml of L3-1Y/IgG2 was treated thereto. 24 hours after, the cells were lysed using Lysis buffer (Roche), thereby obtaining proteins. The concentration of the obtained proteins was measured, and 20 ug of each protein was loaded and subjected to western blotting. The expression amount of c-Myc was detected using c-Myc antibody (Santa-Cruz). A group which is not treated with L3-1Y/IgG2 was used as a control, and the expression amount of beta-actin was used as a control of expression amount of proteins.

Another test relates to HT-29 cells. Description: Cell proliferation (CellTiter Glo) in HT-29 colon cancer cells. Type of test: cell-based. As to conditions: L3-1Y/IgG2 0-2 μg/ml, 72 hours, FIG. 2.
From the text: as §1, §2

For another test, the system named is HCC1954 cells. Description: Cell proliferation (CellTiter Glo) in HCC1954 breast cancer cells. It counts as cell-based. As to conditions: L3-1Y/IgG2 0-2 μg/ml, 72 hours after antibody treatment, siRNA reverse transfected 24 hours before, FIG. 1.
From the text: To confirm the effect of co-administration in a breast cancer cell on which an anti-c-Met antibody has no effect when administered alone, HCC1954 (ATCC, CRL 2338) cells were used for assaying the effect of co-administration on cell proliferation.
as §2, with “HCC1954” for “each of HT-29, Ls174T, SW620, and LoVo”, “the” for “each”

In another test the test system is SW620 cells. Briefly: Cell proliferation (CellTiter Glo) in SW620 colon cancer cells. It counts as cell-based. The note with it: L3-1Y/IgG2 0-2 μg/ml, 72 hours, FIG. 4.
From the text: as §1, §2

The subject of the next test is Ls174T cells. Briefly: Cell proliferation (CellTiter Glo) in Ls174T colon cancer cells. It counts as cell-based. As to conditions: L3-1Y/IgG2 0-2 μg/ml, 72 hours, FIG. 3.
From the text: as §1, §2

Chain of c-Met (P08581 25-1390): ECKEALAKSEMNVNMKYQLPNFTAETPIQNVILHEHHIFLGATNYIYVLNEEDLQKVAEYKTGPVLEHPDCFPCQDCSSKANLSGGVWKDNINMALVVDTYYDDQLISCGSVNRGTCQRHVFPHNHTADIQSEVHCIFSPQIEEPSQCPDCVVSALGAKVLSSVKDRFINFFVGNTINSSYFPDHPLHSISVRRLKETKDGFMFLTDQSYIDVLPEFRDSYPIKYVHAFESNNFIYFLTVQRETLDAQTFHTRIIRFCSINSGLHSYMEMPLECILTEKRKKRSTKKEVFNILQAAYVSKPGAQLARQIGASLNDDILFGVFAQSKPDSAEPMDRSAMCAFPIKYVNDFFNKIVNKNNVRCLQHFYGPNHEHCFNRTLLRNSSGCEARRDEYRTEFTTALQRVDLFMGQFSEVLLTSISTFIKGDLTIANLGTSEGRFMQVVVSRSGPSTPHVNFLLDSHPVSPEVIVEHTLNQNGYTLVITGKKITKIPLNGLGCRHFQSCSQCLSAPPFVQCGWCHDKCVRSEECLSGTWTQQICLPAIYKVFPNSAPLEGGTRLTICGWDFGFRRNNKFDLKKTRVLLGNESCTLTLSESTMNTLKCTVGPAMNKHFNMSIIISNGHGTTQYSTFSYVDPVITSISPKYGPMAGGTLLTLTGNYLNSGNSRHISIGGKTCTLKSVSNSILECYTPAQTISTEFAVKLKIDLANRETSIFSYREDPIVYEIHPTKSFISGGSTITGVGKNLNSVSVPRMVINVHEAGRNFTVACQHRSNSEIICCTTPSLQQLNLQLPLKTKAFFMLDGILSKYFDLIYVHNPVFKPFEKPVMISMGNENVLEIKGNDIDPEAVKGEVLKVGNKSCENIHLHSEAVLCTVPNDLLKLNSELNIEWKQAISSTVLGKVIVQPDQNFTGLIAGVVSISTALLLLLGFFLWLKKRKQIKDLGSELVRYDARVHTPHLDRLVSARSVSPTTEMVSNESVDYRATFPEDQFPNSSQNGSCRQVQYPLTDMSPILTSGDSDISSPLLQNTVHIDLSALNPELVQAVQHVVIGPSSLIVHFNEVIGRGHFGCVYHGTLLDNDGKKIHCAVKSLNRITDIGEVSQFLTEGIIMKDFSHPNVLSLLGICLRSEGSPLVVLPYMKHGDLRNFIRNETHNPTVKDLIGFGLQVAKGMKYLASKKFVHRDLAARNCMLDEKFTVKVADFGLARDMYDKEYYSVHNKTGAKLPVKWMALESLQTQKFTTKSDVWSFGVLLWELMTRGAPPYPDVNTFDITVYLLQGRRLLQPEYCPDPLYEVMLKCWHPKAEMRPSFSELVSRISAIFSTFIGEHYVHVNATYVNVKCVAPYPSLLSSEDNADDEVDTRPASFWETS

B1: scFv of huAbF46: VH-linker-VL single-chain Fv of huAbF46 with linker SEQ ID NO: 54 (protein)
scFv: EVQLVESGGGLVQPGGSLRLSCAASGFTFTDYYMSWVRQAPGKGLEWLGFIRNKANGYTTEYSASVKGRFTISRDNSKNTLYLQMNSLRAEDTAVYYCARDNWFAYWGQGTLVTVSSGLGGLGGGGSGGGGSGGSSGVGSDIQMTQSPSSLSASVGDRVTITCKSSQSLLASGNQNNYLAWHQQKPGKAPKMLIIWASTRVSGVPSRFSGSGSGTDFTLTISSLQPEDFATYYCQQSYSAPLTFGQGTKVEIKR
In the case of B1, the “specificity to c-Met” value with c-Met was “exhibit specificity to c-Met”.

B2: L3-1Y/IgG2: anti-c-Met antibody: huAbF46-H4-A1 heavy chain variable region, human IgG2 hinge and constant region, kappa light chain with tyrosine at position 36 (antibody)
heavy: EVQLVESGGGLVQPGGSLRLSCAASGFTFTDYYMSWVRQAPGKGLEWLGFIRNKANGYTTEYSASVKGRFTISRDNSKNTLYLQMNSLRAEDTAVYYCARDNWFAYWGQGTLVTVSSASTKGPSVFPLAPCSRSTSESTAALGCLVKDYFPEPVTVSWNSGALTSGVHTFPAVLQSSGLYSLSSVVTVPSSNFGTQTYTCNVDHKPSNTKVDKTVERKCCVECPPCPAPPVAGPSVFLFPPKPKDTLMISRTPEVTCVVVDVSHEDPEVQFNWYVDGVEVHNAKTKPREEQFNSTFRVVSVLTVVHQDWLNGKEYKCKVSNKGLPAPIEKTISKTKGQPREPQVYTLPPSREEMTKNQVSLTCLVKGFYPSDIAVEWESNGQPENNYKTTPPMLDSDGSFFLYSKLTVDKSRWQQGNVFSCSVMHEALHNHYTQKSLSLSPGK
light: DIQMTQSPSSLSASVGDRVTITCKSSQSLLASGNQNNYLAWYQQKPGKAPKMLIIWASTRVSGVPSRFSGSGSGTDFTLTISSLQPEDFATYYCQQSYSRPYTFGQGTKVEIKRTVAAPSVFIFPPSDEQLKSGTASVVCLLNNFYPREAKVQWKVDNALQSGNSQESVTEQDSKDSTYSLSSTLTLSKADYEKHKVYACEVTHQGLSSPVTKSFNRGEC
Turning to B2, the “cell proliferation inhibition effect” value in the test with LoVo cells, in the test on HT-29 cells, in the test on HCC1954 cells, with SW620 cells and in the test with Ls174T cells was “no cell proliferation inhibition effect is observed” in each case. Moreover, the “amount of c-Myc (expression)” value with c-Myc is “increased amount of c-Myc”.
